Data as given in US20240270819A1 (ELANCO US, published 2024).

T1: canine IL4 (Sino Biological Inc, Cat #70021-DNAE-5) (canine, UniProt O77762 25-132)
T1 sequence (looked up): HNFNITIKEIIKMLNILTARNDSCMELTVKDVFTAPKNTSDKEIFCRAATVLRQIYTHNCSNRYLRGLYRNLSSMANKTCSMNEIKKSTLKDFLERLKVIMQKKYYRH


Tests used:
[1] = molecular target: canine FcRn with a poly-His tag / canine B2M heterodimer complex (canine); assay: SPR (Biacore T200), pH 6.0; biotinylated FcRn/B2M immobilised, Fc as analyte
[2] = molecular target: T1, canine IL4 (Sino Biological Inc, Cat …); assay: cell-based or functional assay

Molecule	koff [1] [s⁻¹]	TF1 cell proliferation assay (CellTiter-Glo luminescence), IC50 by 4 parameter logistic fit [2] [nM]
variant canine IgG-B Fc polypeptide L(23)S	0.241	
canine IL4RECD-IL13RECD-IgGB Fc (Fc fusion, Biotinylated when captured on the tips in the sequential binding experiment; secreted from CHO cells, so glycosylated.) SGSVKVLHEPSCFSDYISTSVCQWKMDHPTNCSAELRLSYQLDFMGSENHTCVPENREDSVCVCSMPIDDAVEADVYQLDLWAGQQLLWSGSFQPSKHVKPRTPGNLTVHPNISHTWLLMWTNPYPTENHLHSELTYMVNVSNDNDPEDFKVYNVTYMGPTLRLAASTLKSGASYSARVRAWAQTYNSTWSDWSPSTTWLNYYEPGGGSGTETQPPVTNLSVSVENLCTVIWTWDPPEGASPNCTLRYFSHFDNKQDKKIAPETHRSKEVPLNERICLQVGSQCSTNESDNPSILVEKCTPPPEGDPESAVTELQCVWHNLSYMKCTWLPGRNTSPDTNYTLYYWHSSLGKILQCEDIYREGQHIGCSFALTNLKDSSFEQHSVQIVVKDNAGKIRPSFNIVPLTSHVKPDPPHIKRLFFQNGNLYVQWKNPQNFYSRCLSYQVEVNNSQTETNDIFYVEEAKCQNSEFEGNLEGTICFMVPGVLPDTLNTVRIRVRTNKLCYEDDKLWSNWSQAMSIGENTDPTPKRENGRVPRPPDCPKCPAPEMLGGPSVFIFPPKPKDTLLIARTPEVTCVVVDLDPEDPEVQISWFVDGKQMQTAKTQPREEQFNGTYRVVSVLPIGHQDWLKGKQFTCKVNNKALPSPIERTISKARGQAHQPSVYVLPPSREELSKNTVSLTCLIKDFFPPDIDVEWQSNGQQEPESKYRTTPPQLDEDGSYFLYSKLSVDKSRWQRGDTFICAVMHEALHNHYTQESLSHSPGK		2
